For data set [1], the system named is factor VIII expressed by F8-BDD (normal unmodified B-domain-deleted F8).
Data set [2] deals with factor VIII expressed by F8-BDD-299.
The test system of data set [3] is factor VIII expressed by F8-BDD-N8.

As for Thrombin (FIIa), the “activity of factor VIII after thrombin was added (substrate luminescence assay, every two minutes)” value in data set [1] is “the activity of factor VIII expressed by F8-BDD and F8-BDD-N8 is slightly increased”; in data set [2] it was “From the second minute, the activity of factor VIII expressed by F8-BDD-299 is significantly increased”; in data set [3] it was “the activity of factor VIII expressed by F8-BDD and F8-BDD-N8 is slightly increased”.

Values taken from patent US20240218048.
